Patent US20190359687A1 (Bayer, published 2019)

T1: human glycophorin A on human red blood cells or red blood cell membranes (human, UniProt P02724 20-150)
T1 construct: whole, on cells; also called hRBC; human RBC membranes
T1 sequence (looked up): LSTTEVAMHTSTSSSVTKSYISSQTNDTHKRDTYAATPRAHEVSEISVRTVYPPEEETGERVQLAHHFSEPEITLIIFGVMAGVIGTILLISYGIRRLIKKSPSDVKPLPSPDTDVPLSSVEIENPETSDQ

T2: recombinant human glycophorin A ectodomain protein (human, UniProt P02724 20-91)
T2 construct: 72 amino acids of the extracellular region; also called Hu-rec GPA
T2 sequence: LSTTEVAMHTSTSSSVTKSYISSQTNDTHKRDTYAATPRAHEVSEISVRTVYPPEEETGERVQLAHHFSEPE

T3: native human glycophorin A protein (human, UniProt P02724 20-150)
T3 construct: mature; also called Hu-nat GPA
T3 sequence (looked up): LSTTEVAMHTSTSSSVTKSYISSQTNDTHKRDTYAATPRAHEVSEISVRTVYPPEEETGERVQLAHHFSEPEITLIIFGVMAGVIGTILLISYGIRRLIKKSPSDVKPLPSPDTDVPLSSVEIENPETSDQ


Key:
[1] = target: T4, Cynomolgus monkey glycophorin A on Cynomolgus monkey red blood cells or red blood cell membranes (Cynomolgus monkey); experiment: Fab 7 ug/ml on intact cyno RBC, unbound Fab by ELISA; pre-dilution
T4 construct: whole, on cells; also called Cyno RBC; Cynomolgus monkey RBC membranes
Protocol: (§1) The binding of affinity matured Fab antibodies to intact Cynomolgus monkey RBC was measured. Cynomolgus monkey RBC were isolated from fresh anti-coagulated blood by centrifugation through a ficol gradient and washing in PBS buffer. RBC diluted to 1/10th of normal hematocrit were incubated with the Fab at a final concentration of 7 ug/ml for 1 hour at room temperature on a rotating shaker after which a sample was taken and the RBC were pelleted by centrifugation and the supernatant was collected. The remaining RBC suspension was diluted 200-fold in PBS buffer and incubated for a total of 2 hours at room temperature on a rotating shaker and samples were removed at 0, 5 min, 20 min, 1 h and 2 h and the RBC pelleted and the supernatant collected. […] The amount of Fab in the supernatants was then measured using an ELISA assay and the results used to calculate the percentage of the input Fab that was bound to the RBC.

[2] = target: T1, human glycophorin A on human red blood …; experiment: Fab 7 ug/ml on intact human RBC, unbound Fab by ELISA; pre-dilution
[3] = target: T1, human glycophorin A on human red blood …; experiment: Fab on intact human RBC, unbound Fab by ELISA; 0 min after 200-fold dilution
[4] = target: T1, human glycophorin A on human red blood …; experiment: Fab on intact human RBC, unbound Fab by ELISA; 5 min after 200-fold dilution
[5] = target: T1, human glycophorin A on human red blood …; experiment: SPR (Biacore), Fab on human RBC membranes; T½ = 0.69/kd; * not accurate
Protocol: (§2) Kinetic analysis of the antibody binding to human red blood cell membranes was also performed using surface plasmon resonance (SPR) using a Biacore instrument. In this assay membranes prepared from human red blood cells were attached to a L1 sensor matrix and antibodies were flowed over the RBC membranes.
(§3) The binding kinetics of the affinity matured Fab antibodies was also measured.

[6] = target: T4, Cynomolgus monkey glycophorin A on …; experiment: Fab on intact cyno RBC, unbound Fab by ELISA; 60 min after 200-fold dilution
Protocol: as §1

[7] = target: T4, Cynomolgus monkey glycophorin A on …; experiment: Fab on intact cyno RBC, unbound Fab by ELISA; 120 min after 200-fold dilution
Protocol: as §1

[8] = target: T4, Cynomolgus monkey glycophorin A on …; experiment: Fab on intact cyno RBC, unbound Fab by ELISA; 0 min after 200-fold dilution
[9] = target: T1, human glycophorin A on human red blood …; experiment: Fab on intact human RBC, unbound Fab by ELISA; 120 min after 200-fold dilution
Protocol: (§4) The binding of affinity matured Fab antibodies to intact human RBC was also measured. Human RBC were isolated from fresh anti-coagulated normal human blood by centrifugation through a ficol gradient and washing in PBS buffer. RBC diluted to 1/10th of normal hematocrit were incubated with purified Fab antibodies at a final concentration of 7 ug/ml for 1 hour at room temperature on a rotating shaker after which a sample was taken and the RBC were pelleted by centrifugation and the supernatant was collected. The remaining RBC suspension was diluted 200-fold in PBS buffer and incubated for a total of 2 hours at room temperature on a rotating shaker and samples were removed at 0, 5 min, 20 min, 1 h and 2 h and the RBC pelleted and the supernatant collected. The amount of Fab in the supernatants was then measured using an ELISA assay and the results used to calculate the percentage of the input Fab that was bound to the RBC. […] The percentage that remains bound after 200-fold dilution of the RBC suspension is an indication of the overall strength of the binding to human RBC.

[10] = target: T4, Cynomolgus monkey glycophorin A on …; experiment: Fab on intact cyno RBC, unbound Fab by ELISA; 20 min after 200-fold dilution
Protocol: as §1

[11] = target: T1, human glycophorin A on human red blood …; experiment: Fab on intact human RBC, unbound Fab by ELISA; 60 min after 200-fold dilution
Protocol: as §4

[12] = target: T1, human glycophorin A on human red blood …; experiment: Fab on intact human RBC, unbound Fab by ELISA; 20 min after 200-fold dilution
Protocol: as §4

[13] = target: T4, Cynomolgus monkey glycophorin A on …; experiment: Fab on intact cyno RBC, unbound Fab by ELISA; 5 min after 200-fold dilution
Protocol: as §1

[14] = target: T1, human glycophorin A on human red blood …; experiment: SPR (Biacore), Fab on human RBC membranes; * not accurate, instrument limit
Protocol: as §2, §3

[15] = target: T1, human glycophorin A on human red blood …; experiment: ELISA, Fab on coated human RBC membranes
Protocol: These membranes are prepared by first isolating red blood cells from citrated whole blood. Citrated whole blood is layered on to Ficol and centrifuged at low speed for 20 minutes to pellet the red blood cells. The supernatant containing plasma and other blood cells is discarded and the red blood cell pellet is subsequently washed 3 times in 10 cell volumes of phosphate buffered saline (PBS). A 10 ml pellet of purified red blood cells is resuspended in 30 ml of cold low osmorality 20 mM phosphate buffer (pH7.4) and incubated for 30 mins to break open the RBC. After Centrifugation at 10,000 rpm for 30 min at 5° C. the hemoglobin containing supernatant is discarded. To the membrane pellet another 30 ml of 20 mM phosphate buffer is added and the sample centrifuged again at 10,000 rpm for 30 min at 5° C. to pellet the membrane fraction. This wash and centrifugation step is repeated another 4 times. The red blood cell membranes are then resuspended in 20 mL of PBS to achieve an equivalent of approximately 2.5E9 cells/mL and stored frozen at −20° C. Binding of antibodies to RBC ghost can be measured by ELISA in which the RBC ghost suspension (5×10⁶ in 100 ul PBS) was added to each well of flat bottom 96-well ELISA microtiter plates (2HB, Immunolon) and the plates incubated overnight at 4° C. The plates were blocked with Starting blocking buffer (Thermo Fisher) for 2 hours at room temperature (RT). Antibodies or other test molecules were added to each well and incubated for 1.5 hours at RT. After 4 washes 100 ul of an appropriate detection antibody was added to each well and incubated for 1 hour at RT. After 4 washes the detection antibody was measured using appropriate detection reagents.

[16] = target: T1, human glycophorin A on human red blood …; experiment: SPR (Biacore), Fab over human RBC membranes, 1:1 fit; * slight deviation possible
Protocol: as §2

[17] = target: T2, recombinant human glycophorin A …; experiment: ELISA, Fab on coated recombinant human GPA ectodomain
[18] = target: T3, native human glycophorin A protein; experiment: ELISA, Fab on coated native human GPA
[19] = target: T5, Cynomolgus monkey recombinant glycophorin A ectodomain (Cynomolgus monkey); experiment: ELISA, Fab on coated recombinant cyno GPA ectodomain
T5 construct: extracellular domain

[20] = target: T4, Cynomolgus monkey glycophorin A on …; experiment: ELISA, Fab on coated cyno RBC membranes
[21] = target: T1, human glycophorin A on human red blood …; experiment: SPR (Biacore), Fab over human RBC membranes, 1:1 fit;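 also: human RBC membrane preparations captured on an L1 sensor surface, with antibody passed over them as analyte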
Protocol: as §2

Binder	binding in ELISA relative to parental Fab [15]	binding in ELISA relative to parental Fab [17]	binding in ELISA relative to parental Fab [18]	binding in ELISA relative to parental Fab [19]	binding in ELISA relative to parental Fab [20]	Kd [21] [nM]	koff [21] [s⁻¹]	kon [21] [M⁻¹ s⁻¹]	other results
TPP-7794, affinity matured 6C12 Fab (Fab, V domains shown, Tested as Fab) VH: EVQLVQSGAEVKKPGASVKVSCKASGYTFTTYAIHWVRQAPGQGLEWMGYINPSSGYTRYNPKFKHRVTMTRDKSTSTAYMELRSLRSDDTAVYYCWTGTRDYWGQGTTVTVSS VL: DIQLTQSPSFLSASVGDRVTITCRASSSVRYIYWFQQKPGKAPKLLIYATSFRQSGVPSRFSGSGSGTEYTLTISSLQPEDFATYYCHQRNSFPYTFGQGTKLEIK									percentage of input antibody bound [1]: 73%; percentage of input antibody bound [2]: 93%; percentage of input antibody bound [3]: 92%; percentage of input antibody bound [4]: 91%; Estimated T½ [5]: 922 days; percentage of input antibody bound [6]: 67%; percentage of input antibody bound [7]: 57%; percentage of input antibody bound [8]: 67%; percentage of input antibody bound [9]: 90%; percentage of input antibody bound [10]: 65%; percentage of input antibody bound [11]: 90%; percentage of input antibody bound [12]: 90%; percentage of input antibody bound [13]: 66%; Kd [14]: < 0.01 nM; koff [14]: < 2e-05 s⁻¹; kon [14]: 2.22e+07 M⁻¹ s⁻¹
TPP-4935, humanized 6C12 parental Fab (Hu6C12-24) (Fab, V domains shown, also called parent Fab; TPP-4935 (Parental)) VH: EVQLVQSGAEVKKPGASVKVSCKASGYTFTTYTIHWVRQAPGQGLEWIGYINPSSDYTRYNPKFKDRVTLTTDKSTSTAYMELRSLRSDDTAVYYCQTGTRDYWGQGTTVTVSS VL: DIQLTQSPSFLSASVGDRVTITCSAASSVSYIYWFQQKPGKAPKLLIYSTSTLPSGVPSRFSGSGSGTEYTLTISSLQPEDFATYYCHQRNSFPFTFGQGTKLEIKR	1 relative to parental Fab	1 relative to parental Fab	1 relative to parental Fab	1 relative to parental Fab					Kd [16]: 167 nM; koff [16]: 0.031 s⁻¹; kon [16]: 190000 M⁻¹ s⁻¹
TPP-5835, Hu6C12-24 Fab variant VL: (S24R, A26S, S49A, P54Q, F95Y); VH: (I48M, L70M) (Fab, V domains shown, Built on the parental Fab TPP-4935) VH: EVQLVQSGAEVKKPGASVKVSCKASGYTFTTYTIHWVRQAPGQGLEWMGYINPSSDYTRYNPKFKDRVTMTTDKSTSTAYMELRSLRSDDTAVYYCQTGTRDYWGQGTTVTVSS VL: DIQLTQSPSFLSASVGDRVTITCRASSSVSYIYWFQQKPGKAPKLLIYATSTLQSGVPSRFSGSGSGTEYTLTISSLQPEDFATYYCHQRNSFPYTFGQGTKLEIKR	10.3 relative to parental Fab	4.3 relative to parental Fab	5.2 relative to parental Fab	1.1 relative to parental Fab	1.4 relative to parental Fab				
TPP-5702, Hu6C12-24 Fab variant VL: (S24R, A26S, S49A, P54Q, F95Y) (Fab, V domains shown, Built on the parental Fab TPP-4935) VH: EVQLVQSGAEVKKPGASVKVSCKASGYTFTTYTIHWVRQAPGQGLEWIGYINPSSDYTRYNPKFKDRVTLTTDKSTSTAYMELRSLRSDDTAVYYCQTGTRDYWGQGTTVTVSS VL: DIQLTQSPSFLSASVGDRVTITCRASSSVSYIYWFQQKPGKAPKLLIYATSTLQSGVPSRFSGSGSGTEYTLTISSLQPEDFATYYCHQRNSFPYTFGQGTKLEIKR	10.2 relative to parental Fab	4.3 relative to parental Fab	5.2 relative to parental Fab	1.1 relative to parental Fab	1.1 relative to parental Fab	170	0.11	650000	
TPP-7797, affinity matured 6C12 Fab (Fab, V domains shown, Tested as Fab) VH: EVQLVQSGAEVKKPGASVKVSCKASGYTFTTYTIHWVRQAPGQGLEWMGYINPSSGYTRYNPKFKGRVTMTRDKSTSTAYMELRSLRSDDTAVYYCWTGRRDYWGQGTTVTVSS VL: DIQLTQSPSFLSASVGDRVTITCRASSSVRYIYWFQQKPGKAPKLLIYATSFRQSGVPSRFSGSGSGTEYTLTISSLQPEDFATYYCHQRNSFPYTFGQGTKLEIK									percentage of input antibody bound [1]: 79%; percentage of input antibody bound [2]: 97%; percentage of input antibody bound [3]: 96%; percentage of input antibody bound [4]: 95%; Estimated T½ [5]: 0.487 days; percentage of input antibody bound [6]: 56%; percentage of input antibody bound [7]: 50%; percentage of input antibody bound [8]: 81%; percentage of input antibody bound [9]: 92%; percentage of input antibody bound [10]: 59%; percentage of input antibody bound [11]: 94%; percentage of input antibody bound [12]: 94%; percentage of input antibody bound [13]: 66%; Kd [14]: 0.000253 nM; koff [14]: 1.64e-05 s⁻¹; kon [14]: 6.49e+07 M⁻¹ s⁻¹
TPP-5841, Hu6C12-24 Fab variant VL: (S24R, A26S, S49A, P54Q, F95Y); VH: (D66G, L70M) (Fab, V domains shown, Built on the parental Fab TPP-4935) VH: EVQLVQSGAEVKKPGASVKVSCKASGYTFTTYTIHWVRQAPGQGLEWIGYINPSSDYTRYNPKFKGRVTMTTDKSTSTAYMELRSLRSDDTAVYYCQTGTRDYWGQGTTVTVSS VL: DIQLTQSPSFLSASVGDRVTITCRASSSVSYIYWFQQKPGKAPKLLIYATSTLQSGVPSRFSGSGSGTEYTLTISSLQPEDFATYYCHQRNSFPYTFGQGTKLEIKR	11.9 relative to parental Fab	4.7 relative to parental Fab	5.8 relative to parental Fab	1.2 relative to parental Fab	2.1 relative to parental Fab	3.3	0.0043	1.3e+06	
TPP-5907, humanized and germlined 6C12 Fab; VL: (S24R, A26S, S49A, P54Q, F95Y); VH: (I48M, S54G, D56G, D66G, L70M, T72R) (Fab, V domains shown) VH: EVQLVQSGAEVKKPGASVKVSCKASGYTFTTYTIHWVRQAPGQGLEWMGYINPGSGYTRYNPKFKGRVTMTRDKSTSTAYMELRSLRSDDTAVYYCQTGTRDYWGQGTTVTVSS VL: DIQLTQSPSFLSASVGDRVTITCRASSSVSYIYWFQQKPGKAPKLLIYATSTLQSGVPSRFSGSGSGTEYTLTISSLQPEDFATYYCHQRNSFPYTFGQGTKLEIKR	90.1 relative to parental Fab	6.9 relative to parental Fab	12.3 relative to parental Fab	1.4 relative to parental Fab	1.9 relative to parental Fab	0.8	0.004	4.9e+06	
TPP-5839, Hu6C12-24 Fab variant VL: (S24R, A26S, S49A, P54Q, F95Y); VH: (I48M, D66G, L70M, T72R) (Fab, V domains shown, Built on the parental Fab TPP-4935) VH: EVQLVQSGAEVKKPGASVKVSCKASGYTFTTYTIHWVRQAPGQGLEWMGYINPSSDYTRYNPKFKGRVTMTRDKSTSTAYMELRSLRSDDTAVYYCQTGTRDYWGQGTTVTVSS VL: DIQLTQSPSFLSASVGDRVTITCRASSSVSYIYWFQQKPGKAPKLLIYATSTLQSGVPSRFSGSGSGTEYTLTISSLQPEDFATYYCHQRNSFPYTFGQGTKLEIKR	5.8 relative to parental Fab	4.7 relative to parental Fab	5.8 relative to parental Fab	1.2 relative to parental Fab	2.3 relative to parental Fab	1.6	0.0035	2.1e+06	
